Three substances from PMC11980386 can be followed below.

Several values for one entry are separate records, joined by “and”; a condition that tells them apart may be missing. Equal values may be shown once.

Test [1] concerns the target Superoxide reductase Sor (CD0827, desulfoferrodoxin) of Clostridioides difficile (Clostridioides difficile). Kind of test: SEC; Superdex S200 10/300 GL, 20 mM Tris-HCl pH 7.5, 150 mM NaCl, no glycerol; mass read against protein standards. On the technique in general: SEC sorts molecules by how far they enter the pores of the column.
The target of test [2] is Rubrerythrin Rbr (CD0825) of Clostridioides difficile (Clostridioides difficile). Put plainly: SEC; Superdex S200 10/300 GL, 20 mM Tris-HCl pH 7.5, 18% glycerol, 150 mM NaCl; mass read against protein standards.
Test [3] concerns the target CD0828 of Clostridioides difficile (annotated as a glutamate synthase, with an N-terminal rubredoxin-like domain) (Clostridioides difficile). Kind of test: SEC; Superdex S200 10/300 GL, 20 mM Tris-HCl pH 7.5, 18% glycerol, 150 mM NaCl; mass read against a second set of standards (ovalbumin, conalbumin, aldolase, ferritin, thyroglobulin).

For orientation: stoichiometry N means a count of units in the complex or per binding partner. For the substance “Superoxide reductase Sor (CD0827, desulfoferrodoxin) of Clostridioides difficile (enzyme)”, the stoichiometry N in test [1] is 2 and 4.

Consider “Rubrerythrin Rbr (CD0825) of Clostridioides difficile (enzyme)”, for which the stoichiometry N in test [2] amounted to 4.

“CD0828 of Clostridioides difficile (annotated as a glutamate synthase, with an N-terminal rubredoxin-like domain) (natural protein)” returned a stoichiometry N in test [3] of 2.
